Measurements from article PMC11068563, “The MCU and MCUb amino-terminal domains tightly interact: mechanisms for low conductance assembly of the mitochondrial calcium uniporter complex” (iScience, 2024).
Blank lines part the entries; values can stand above or below the molecule they belong to.

B4: Red-(NHS)-labeled MCUb-NTD (MCUb residues 58-159) (domain or fragment, human, UniProt Q9NWR8 58-159, looked up)
chain: DEITVIYRHGLPLVTLTLPSRKERCQFVVKPMLSTVGSFLQDLQNEDKGIKTAAIFTADGNMISASTLMDILLMNDFKLVINKIAYDVQCPKREKPSNEHTA
modifications: Red-NHS dye covalently linked to primary amines
notes: MCU dominant negative beta subunit (MCUb), Homo sapiens, GenBank NP_060388.2, residues 58-159 (amino-terminal domain); Same chain as m1, with the label; source: E. coli BL21(DE3) codon plus, purified (Ni-NTA, thrombin, SEC), then labelled with the RED-NHS labeling kit (NanoTemper)
B5: MCUb-NTD-fluorescein (MCUb residues 58-159 labelled with fluorescein at Cys82 and Cys147) (domain or fragment, human, UniProt Q9NWR8 58-159, looked up)
chain: DEITVIYRHGLPLVTLTLPSRKERCQFVVKPMLSTVGSFLQDLQNEDKGIKTAAIFTADGNMISASTLMDILLMNDFKLVINKIAYDVQCPKREKPSNEHTA
modifications: fluorescein (fluorescein-methane thiosulfonate) on Cys82 and Cys147
notes: MCU dominant negative beta subunit (MCUb), Homo sapiens, GenBank NP_060388.2, residues 58-159 (amino-terminal domain); Same chain as m1, with the label; also called fluorescein-MCUb-NTD; MCUb_(58-159) labeled; source: E. coli BL21(DE3) codon plus, purified (Ni-NTA, thrombin, SEC), then labelled with fluorescein-MTS

What was measured:
MCUb-NTD (MCUb58-159) = biological target: T1, MCUb-NTD (MCUb58-159) (Homo sapiens, UniProt Q9NWR8); assay: ANS fluorescence titration, one-site fit; type: binding; conditions: read-out: apparent KD
T1 construct: N-terminal domain, residues 58-159; pET-28a, E. coli BL21(DE3) codon plus; N-terminal 6xHis tag cut with thrombin
T1 sequence (Q9NWR8 58-159): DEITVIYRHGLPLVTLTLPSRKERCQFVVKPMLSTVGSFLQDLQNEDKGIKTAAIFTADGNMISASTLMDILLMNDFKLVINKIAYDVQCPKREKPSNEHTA

[1] = biological target: MCUb amino-terminal domain (MCUb-NTD), MCUb 58-159 (human) (UniProt Q9NWR8); assay: SEC-MALS; 100 uL injected at 2.0 mg mL-1; Superdex 200 Increase 10/300 GL; 20 mM Tris (pH 8.5), 150 mM NaCl, 1 mM DTT, 10 C; no divalent cations
[2] = biological target: MCUb amino-terminal domain (MCUb-NTD), MCUb 58-159 (human) (UniProt Q9NWR8); assay: SEC-MALS; 100 uL injected at 4.0 mg mL-1; Superdex 200 Increase 10/300 GL; 20 mM Tris (pH 8.5), 150 mM NaCl, 1 mM DTT, 10 C; no divalent cations
[3] = biological target: MCUb amino-terminal domain (MCUb-NTD), MCUb 58-159 (human) (UniProt Q9NWR8); assay: SEC-MALS; 100 uL injected at 3.0 mg mL-1 (mixed sample: final 1.5 mg mL-1 of each component); Superdex 200 Increase 10/300 GL; 20 mM Tris (pH 8.5), 150 mM NaCl, 1 mM DTT, 10 C; with 5 mM CaCl2
[4] = biological target: MCUb amino-terminal domain (MCUb-NTD), MCUb 58-159 (human) (UniProt Q9NWR8); assay: SEC-MALS; 100 uL injected at 3.0 mg mL-1 (mixed sample: final 1.5 mg mL-1 of each component); Superdex 200 Increase 10/300 GL; 20 mM Tris (pH 8.5), 150 mM NaCl, 1 mM DTT, 10 C; with 5 mM MgCl2
[5] = biological target: T2, MCU amino-terminal domain (MCU-NTD), MCU 72-189 (human, UniProt Q8NE86-1 72-189); assay: SEC-MALS; 100 uL injected at 3.0 mg mL-1 (mixed sample: final 1.5 mg mL-1 of each component); Superdex 200 Increase 10/300 GL; 20 mM Tris (pH 8.5), 150 mM NaCl, 1 mM DTT, 10 C; with 5 mM CaCl2; conditions: both partners purified
T2 construct: mitochondrial calcium uniporter (MCU), Homo sapiens, GenBank NP_612366.1, N-terminal domain, residues 72-189; theoretical monomer mass printed as 13.8637 kDa
T2 sequence (looked up): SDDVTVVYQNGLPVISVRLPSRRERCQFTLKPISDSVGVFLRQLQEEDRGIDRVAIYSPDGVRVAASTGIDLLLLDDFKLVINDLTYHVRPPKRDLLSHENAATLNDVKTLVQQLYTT

[6] = biological target: T2, MCU amino-terminal domain (MCU-NTD), …; assay: SEC-MALS; 100 uL injected at 3.0 mg mL-1 (mixed sample: final 1.5 mg mL-1 of each component); Superdex 200 Increase 10/300 GL; 20 mM Tris (pH 8.5), 150 mM NaCl, 1 mM DTT, 10 C; with 5 mM MgCl2; conditions: both partners purified
[7] = biological target: MCUb amino-terminal domain (MCUb-NTD), MCUb 58-159 (human) (UniProt Q9NWR8); assay: SEC-MALS; 100 uL injected at 3.0 mg mL-1 (mixed sample: 3 mg mL-1 each mixed, final 1.5 mg mL-1 of each component); Superdex 200 Increase 10/300 GL; 20 mM Tris (pH 8.5), 150 mM NaCl, 1 mM DTT, 10 C; no divalent cations
[8] = biological target: T2, MCU amino-terminal domain (MCU-NTD), …; assay: as above; conditions: both partners purified
[9] = biological target: T3, Fluorescein-MCU-NTD (MCU 72-189 labelled with fluorescein-MTS at Cys97) (human, UniProt Q8NE86-1 72-189, fluorescein (fluorescein-methane thiosulfonate) on Cys97); assay: other fluorescence titration; steady-state fluorescein fluorescence; ~0.1 uM fluorescein-MCU-NTD titrated with MCUb-NTD; 20 mM Tris (pH 8.5), 150 mM NaCl, 1 mM DTT, 0.0001% (v/v) NP-40, 5 mM CaCl2; 22.5 C; one-site model; conditions: both partners purified
T3 construct: mitochondrial calcium uniporter (MCU), Homo sapiens, GenBank NP_612366.1, N-terminal domain, residues 72-189; also called MCU-NTD-fluorescein; source: labelled with fluorescein-MTS
T3 sequence (looked up): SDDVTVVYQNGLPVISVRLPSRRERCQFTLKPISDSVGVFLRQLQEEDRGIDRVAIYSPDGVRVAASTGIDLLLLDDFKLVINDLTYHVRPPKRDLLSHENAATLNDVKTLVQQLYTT

[10] = biological target: T3, Fluorescein-MCU-NTD (MCU 72-189 …); assay: other fluorescence titration; steady-state fluorescein fluorescence; ~0.1 uM fluorescein-MCU-NTD titrated with MCUb-NTD; 20 mM Tris (pH 8.5), 150 mM NaCl, 1 mM DTT, 0.0001% (v/v) NP-40, 5 mM MgCl2; 22.5 C; one-site model; conditions: both partners purified
[11] = biological target: T4, MCU-NTD-fluorescein (MCU residues 72-189 labelled with fluorescein-MTS at Cys97) (human, UniProt Q8NE86-1 72-189, fluorescein (fluorescein-methane thiosulfonate) on Cys97); assay: other fluorescence titration; steady-state fluorescein fluorescence; 0.1 uM MCU-NTD-fluorescein titrated with MCUb-NTD; 20 mM Tris (pH 8.5), 150 mM NaCl, 1 mM DTT, 0.0001% (v/v) NP-40, 22.5°C; one-site model; conditions: both partners purified
T4 construct: mitochondrial calcium uniporter (MCU), Homo sapiens, GenBank NP_612366.1, residues 72-189 (amino-terminal domain); Same chain as m2, with the label; also called fluorescein-MCU-NTD; MCU_(72-189) labeled
T4 sequence (looked up): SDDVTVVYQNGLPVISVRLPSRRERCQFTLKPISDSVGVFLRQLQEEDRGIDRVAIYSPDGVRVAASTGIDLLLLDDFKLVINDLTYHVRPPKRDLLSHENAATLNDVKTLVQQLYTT

[12] = biological target: B4; assay: MST; Red-NHS-labelled MCUb-NTD, increasing MCU-NTD or MCU-NTD-D147R; 20 mM Tris (pH 8.5), 150 mM NaCl, 1 mM DTT, 0.05% (v/v) NP-40, 22°C; one-site model; conditions: both partners purified
[13] = biological target: B5; assay: other fluorescence titration; steady-state fluorescein fluorescence; 0.1 uM MCUb-NTD-fluorescein titrated with MCU-NTD or MCU-NTD-D147R; 20 mM Tris (pH 8.5), 150 mM NaCl, 1 mM DTT, 0.0001% (v/v) NP-40, 22.5°C; one-site model; conditions: both partners purified
[14] = biological target: T5, MCU amino-terminal domain (MCU-NTD), MCU residues 72-189 (human, UniProt Q8NE86-1 72-189); assay: MST; Red-NHS-labelled MCUb-NTD, increasing MCU-NTD or MCU-NTD-D147R; 20 mM Tris (pH 8.5), 150 mM NaCl, 1 mM DTT, 0.05% (v/v) NP-40, 22°C; one-site model; conditions: both partners purified
T5 construct: mitochondrial calcium uniporter (MCU), Homo sapiens, GenBank NP_612366.1, residues 72-189 (amino-terminal domain); theoretical monomer mass 13.8637 kDa is printed; also called MCU_(72-189); 15N-MCU-NTD; source: 15N-labelled in M9 minimal medium for NMR
T5 sequence (looked up): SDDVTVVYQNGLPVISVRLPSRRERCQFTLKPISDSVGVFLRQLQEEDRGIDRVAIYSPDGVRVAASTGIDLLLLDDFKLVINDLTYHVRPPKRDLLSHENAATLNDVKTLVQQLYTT

[15] = biological target: T5, MCU amino-terminal domain (MCU-NTD), …; assay: other fluorescence titration; steady-state fluorescein fluorescence; 0.1 uM MCUb-NTD-fluorescein titrated with MCU-NTD or MCU-NTD-D147R; 20 mM Tris (pH 8.5), 150 mM NaCl, 1 mM DTT, 0.0001% (v/v) NP-40, 22.5°C; one-site model; conditions: both partners purified

Kd (MCUb-NTD (MCUb58-159)): 1500 ± 600 nM
Molecule: O=S(=O)(O)c1cccc2cccc(Nc3ccccc3)c12 [ANS, 8-Anilinonapthalene 1-sulfonic acid]

stoichiometry N [1]: 0.95
stoichiometry N [2]: 1.02
stoichiometry N [3]: 0.92
stoichiometry N [4]: 0.92
stoichiometry N [5]: 1.72
stoichiometry N [6]: 1.61
stoichiometry N [7]: 0.97
stoichiometry N [8]: 1.68
Kd [9]: 90 nM
Kd [10]: 160 nM
B1: MCUb amino-terminal domain (MCUb-NTD), MCUb 58-159 (domain or fragment, human, UniProt Q9NWR8 58-159, looked up)
chain: DEITVIYRHGLPLVTLTLPSRKERCQFVVKPMLSTVGSFLQDLQNEDKGIKTAAIFTADGNMISASTLMDILLMNDFKLVINKIAYDVQCPKREKPSNEHTA
notes: MCU dominant negative beta subunit (MCUb), Homo sapiens, GenBank NP_060388.2, N-terminal domain, residues 58-159; Theoretical monomer mass printed as 12.0098 kDa; a few vector residues probably remain after thrombin cleavage (pET-28a, NheI/XhoI); source: E. coli BL21(DE3) codon plus, purified (Ni-NTA, thrombin, SEC); not shown: 6xHis, N-terminal, cleaved

Kd [11]: 125 nM
B2: MCUb amino-terminal domain (MCUb-NTD), MCUb residues 58-159 (domain or fragment, human, UniProt Q9NWR8 58-159, looked up)
chain: DEITVIYRHGLPLVTLTLPSRKERCQFVVKPMLSTVGSFLQDLQNEDKGIKTAAIFTADGNMISASTLMDILLMNDFKLVINKIAYDVQCPKREKPSNEHTA
notes: MCU dominant negative beta subunit (MCUb), Homo sapiens, GenBank NP_060388.2, residues 58-159 (amino-terminal domain); Cloned into pET-28a by NheI and XhoI; printed as 6xHis-MCUb_(58-159); theoretical monomer mass 12.0098 kDa and 107 expected backbone amides are printed, so a few vector residues probably remain after thrombin cleavage (surmise); also called MCUb_(58-159); 15N-MCUb-NTD; source: E. …

fold change of KD against MCU-NTD [12]: ~2 fold
fold change of KD against MCU-NTD [13]: ~2 fold
B3: MCU-NTD-D147R (MCU residues 72-189 with D147R) (domain or fragment, human, UniProt Q8NE86-1 72-189, looked up)
chain: SDDVTVVYQNGLPVISVRLPSRRERCQFTLKPISDSVGVFLRQLQEEDRGIDRVAIYSPDGVRVAASTGIDLLLLRDFKLVINDLTYHVRPPKRDLLSHENAATLNDVKTLVQQLYTT
notes: mitochondrial calcium uniporter (MCU), Homo sapiens, GenBank NP_612366.1, residues 72-189 (amino-terminal domain) with D147R in the MCU regulating acidic patch; also called D147R MCU_(72-189)

Molecule: B4
Kd [14]: 4650 nM

Molecule: B5
Kd [15]: 133 nM
